For series [1], the system named is MS2 coat protein. The series can be described thus: apparent KD of MS2 coat protein, switch ON state; designed switch direction (-1 OFF switch, 1 ON switch): 1; higher = weaker reporter binding. The note with it: FMN input: 0 or 200 uM; Eterna round: R93 (includes R88 designs). In short, it runs like this:
(§1)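 Titration buffer: 100 mM Tris-HCl pH 7.5, 80 mM KCl, 4 mM MgCl2, without or with constant ligand. Designed RNA switches transcribed on-chip from Illumina sequencing clusters received SNAP-549-labelled MS2 coat protein in twofold steps from 0.7 or 1.5 nM to 3 µM. Apparent KD is the median per design of fits to normalised cluster binding curves.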

The test system of series [2] is MS2 coat protein. The experiment in a line: apparent KD of MS2 coat protein, switch OFF state (with FMN for OFF switches, without FMN for ON switches); designed switch direction (-1 OFF switch, 1 ON switch): 1; higher = weaker reporter binding. The note with it: FMN input: 0 or 200 uM; Eterna round: R93 (includes R88 designs). A digest of the protocol: as §1

As for “AUUCCAAAUAGUCAGGAUAUCAAAAAUAAGACAUGAGGAUCACCCAUGUACUUAGUAAAAGUAAAUGAGAAGGGACAGGGUGUAA [JR_SS002_Sub404]”, the entries for the “apparent KD of MS2 coat protein” value in series [1] and in series [2] were 12.9 nM and 19.4 nM, respectively.

Consider “GAAAAACAUGAGGAUCACCCAUGUAAUACAACGUCAGGAUAUUGAUUUUAUUAUGUAUUGCAAGAAGGGACAAAAG [Mat - Same State 1 - Hyphema mod - D99]”, for which the “apparent KD of MS2 coat protein” value in series [1] is 95.2 nM; in series [2], 49.4 nM.

As for “AAGAAAGAAACGCAGGAUAUGCAAAACAAAACAUGAGGAUCACCCAUGUCUUACUUACAAACAAAGCAGAAGGGCGAAAGAAAGAA [Same State 2 B]”, the “apparent KD of MS2 coat protein” value in series [1] was 16.4 nM; in series [2], 20 nM.

Turning to “AAUACACAUGGUCAGGAUAUCGCAGCUAGGACAUGAGGAUCACCCAUGUAAUAAGUAAAAGUAAAUGAGAAGGGACAGGGUGACC [JR_SS002_Sub405]”, the “apparent KD of MS2 coat protein” value came out at 520 nM in series [1] and 206 nM in series [2].

As for “UACACGCGGGCGCAGGAUAUGUCGCUGGUGACAUGAGGAUCACCCAUGUAUACCAUUGCGGUUGAGCAGAAGGGUGAGACGCGUG [Matimare]”, the “apparent KD of MS2 coat protein” value in series [1] was 15.1 nM; in series [2], 57.5 nM.

Turning to “AAGAAACAUGAGGAUCACCCAUGUAGAAAUAUGGGAGGAUAUACGAAGACGAAAGUCAAAGUAGAAGGCCUAAAAG [Mat - Same State 1 - Eli mod - D107]”, the “apparent KD of MS2 coat protein” value in series [1] was found to be 21 nM; in series [2], 68.7 nM.

Regarding “AAAAAACAUGAGGAUCACCCAUGUGACAACAUGGGAGGAUAUACGAAGACGAGAGUCGAAGUAGAAGGCCUAAAAG [Garnet 78]”, the “apparent KD of MS2 coat protein” value was found to be 117 nM in series [1] and 65.3 nM in series [2].

On to “AUAUGAUCAUGUGAGGAUAUCCAUAAUAAAACAUGAGGAUCACCCAUGUAUAGAUAAUAAUAAUGGGAGAAGGCACAUGAUCAAU [SS 2 M41]”, for which the “apparent KD of MS2 coat protein” value in series [1] was 21.6 nM; in series [2], 17.9 nM.

On to “CGUGAACAUGAGGAUCACCCAUGUGAAAAACAUAGAGGAUAUGUCACGUGAGUGUAAAAGACAGAAGGCUAUCGUG [Mod 3 of Round 1 starryjess' Mod pf Nando]”, for which the “apparent KD of MS2 coat protein” value in series [1] came out at 36.5 nM; in series [2], 74.1 nM.

Take “AGGAAACAUGAGGAUCACCCAUGUAAAAAUAACACAGGAUAUGGAAACACGAAAGUGAAACCAGAAGGGUGAAAAG [77%, Mat - Mod of Eli, 16]”: the results for the “apparent KD of MS2 coat protein” value in series [1] and in series [2] were 17.8 nM and 26.1 nM, respectively.

Take “AGAAAUAAAGCUGAGGAUAUGGGAAAAUUCACAUGAGGAUCACCCAUGUAAAAGAAAAUAAAAAACCAGAAGGCAGCAAAUAAGA [Designing denovo 6]”: the “apparent KD of MS2 coat protein” value in series [1] is 27.6 nM; in series [2] it was 49.8 nM.

As for “AAGAAACAUGAGGAUCACCCAUGUAAACUCGAGAGAGGAUAUGGUACAUGGAAGAUCCAACUAGAAGGCUCUGGAG”, the “apparent KD of MS2 coat protein” value in series [1] amounted to 38.6 nM; in series [2], 17.6 nM.

With “AUAACACAUGAGGAUCACCCAUGUAGAAACAAGUCAGGAUAUGCAACCUCAUGAAAUAAAGCAGAAGGGACAAUAA [SS 1 Tesla 4]”, the “apparent KD of MS2 coat protein” value in series [1] worked out at 26.4 nM; in series [2], 88 nM.

Turning to “AUGAAUAGCAUCGAGGAUAUCCAGUCAUGCACAUGAGGAUCACCCAUGUAAGAGAGAGUAUAAUGGGAGAAGGCGAGUACUCGAU [JR_SS002_Sub1704]”, the “apparent KD of MS2 coat protein” value in series [1] was 82 nM; in series [2], 69.4 nM.

For “AAAUAACAUGAGGAUCACCCAUGUUGCAACGGUACAGGAUAUGUGGGUGAAAAUAGCAUGGCAGAAGGGUAGUGUA [SameState1 Malc#29]”, the “apparent KD of MS2 coat protein” value was 130 nM in series [1] and 67.8 nM in series [2].

In the case of “GAGAGACAUGAGGAUCACCCAUGUAGGAUUAUGGGAGGAUAUACAAAGACGAGAGUCAGAGUAGAAGGCCUAGGAU [salish99-ss1-138(!)]”, the “apparent KD of MS2 coat protein” value stood at 21.2 nM in series [1] and 54.9 nM in series [2].

As for “AAAACACAUGAGGAUCACCCAUGUGCAAAAUUCGCAGGAUAUUUCUCAAUUAAAUGAAAGGAAGAAGGGUGAUAAA [Nob's Hobby 34 - Jieux - Same State 1]”, the “apparent KD of MS2 coat protein” value worked out at 19.4 nM in series [1] and 29.4 nM in series [2].

With “AAAUAAAUGACUAAGGAUAUCUCAGAGAAAACAUGAGGAUCACCCAUGUAAUAAUAACAUGAGUGAGAGAAGGUAGUCAACAAAC [Same State 2.3 (Pariah 4 -changed stack on 9nt hairpin)]”, the “apparent KD of MS2 coat protein” value in series [1] stood at 24.3 nM; in series [2], 57.5 nM.

As to “AAAAGACAUGAGGAUCACCCAUGUCCUCGGACAUGAGGAUAUGUACAGACUUCGGUCUGUACAGAAGGCAUGUAAA [SS1 - 1070]”, the “apparent KD of MS2 coat protein” value in series [1] stood at 47.3 nM; in series [2] it was 232 nM.

These data come from the supplement of paper PMC9170038.
